Residue numbers refer to the chain shown, from its start.

We go through 5 molecules from PMC3799434, “RNA polymerase III-specific general transcription factor IIIC contains a heterodimer resembling TFIIF Rap30/Rap74” (Nucleic Acids Research, 2013).

For data set [1], the target named is T1, Sfc1 186-283 (winged helix, lacks WHI) (Schizosaccharomyces pombe, UniProt O14229 186-283).
T1 sequence: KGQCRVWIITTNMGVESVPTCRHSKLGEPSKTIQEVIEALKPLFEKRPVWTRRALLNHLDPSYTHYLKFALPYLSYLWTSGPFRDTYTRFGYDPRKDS
Put plainly: filter binding. The following applies: Buffer D: 20 mM Tris-HCl pH 7.5, 200 mM KCl, 2 mM MgCl2, 10 mM DTT, 25 C (EMSA and nitrocellulose filter binding). Background: Mobility shift assays separate free from complexed probe on a gel.

In data set [2] the target is T2, Sfc1-DBD (C-terminal DNA-binding domain of Sfc1, residues 186-396), recombinant (Schizosaccharomyces pombe, UniProt O14229 186-396).
T2 construct: Sfc1, Schizosaccharomyces pombe, residues 186-396 (winged-helix domain 186-283 and WHI domain 284-396); The crystal structure (4BJI) used selenomethionine-substituted protein; Purification details are in the Supplemental Methods; source: E. coli, purified (Ni-NTA, TEV, ion exchange, no gel filtration); not shown: His-tag, N-terminal, cleaved
T2 sequence (looked up): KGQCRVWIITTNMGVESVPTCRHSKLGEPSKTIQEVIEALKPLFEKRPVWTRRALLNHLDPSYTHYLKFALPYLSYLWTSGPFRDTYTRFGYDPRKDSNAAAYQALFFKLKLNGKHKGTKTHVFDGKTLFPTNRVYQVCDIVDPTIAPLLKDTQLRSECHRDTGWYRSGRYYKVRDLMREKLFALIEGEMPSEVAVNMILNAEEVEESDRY
Kind of data set: ITC; 25°C, VP-ITC; 50 mM HEPES pH 7.5, 150 mM NaCl, 2 mM β-mercaptoethanol; 10 µl injections of 200 µM peptide into 2 ml of 10 µM protein; data not shown. The following applies: both partners purified. A general note: ITC needs no label: the signal is the heat of the interaction.

For data set [3], the target named is T1, Sfc1 186-283 (winged helix, lacks WHI). Kind of data set: filter binding; Buffer D: 20 mM Tris-HCl pH 7.5, 200 mM KCl, 2 mM MgCl2, 10 mM DTT, 25 C (EMSA and nitrocellulose filter binding). The note with it: protein: recombinant; tags: N-terminal His-tag, TEV-cleaved; label: 32P; blunt.
The next data set deals with T3, Sfc1 186-456 (Schizosaccharomyces pombe, UniProt O14229 186-456).
T3 sequence: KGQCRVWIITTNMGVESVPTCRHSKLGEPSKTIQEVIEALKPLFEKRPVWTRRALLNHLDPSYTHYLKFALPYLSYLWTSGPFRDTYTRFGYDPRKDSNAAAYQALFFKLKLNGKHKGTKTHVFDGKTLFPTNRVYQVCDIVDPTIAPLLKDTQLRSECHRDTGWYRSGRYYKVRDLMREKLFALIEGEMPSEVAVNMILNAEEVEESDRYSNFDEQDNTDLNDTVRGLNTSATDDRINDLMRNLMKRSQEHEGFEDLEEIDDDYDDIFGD
Described as above. The note with it: protein: recombinant; tags: N-terminal His-tag, TEV-cleaved; label: 32P; blunt.

The target of data set [4] is T4, Sfc1 1-396;Sfc7 full length (Schizosaccharomyces …, UniProt O14229;A6X980 1-396;1-120, |).
T4 sequence 1: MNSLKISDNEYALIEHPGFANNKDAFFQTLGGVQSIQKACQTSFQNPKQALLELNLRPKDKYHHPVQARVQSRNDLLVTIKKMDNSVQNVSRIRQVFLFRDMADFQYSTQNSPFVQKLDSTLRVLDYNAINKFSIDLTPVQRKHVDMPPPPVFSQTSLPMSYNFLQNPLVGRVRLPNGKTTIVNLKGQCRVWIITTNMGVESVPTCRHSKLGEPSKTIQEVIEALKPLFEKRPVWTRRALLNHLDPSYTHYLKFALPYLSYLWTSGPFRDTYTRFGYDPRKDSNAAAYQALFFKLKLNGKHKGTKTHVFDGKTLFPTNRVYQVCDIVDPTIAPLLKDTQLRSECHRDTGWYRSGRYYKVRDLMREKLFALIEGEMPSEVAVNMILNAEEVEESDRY
T4 sequence 2: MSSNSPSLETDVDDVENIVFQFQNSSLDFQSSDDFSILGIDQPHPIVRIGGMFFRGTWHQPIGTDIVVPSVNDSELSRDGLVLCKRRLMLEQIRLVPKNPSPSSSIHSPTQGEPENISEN
The data set is described as above. The following applies: protein: recombinant;recombinant; tags: N-terminal His-tag, TEV-cleaved;; copies: 1;1; label: 32P; blunt.

The next data set concerns the target T5, Sfc1 111-456 (Schizosaccharomyces pombe, UniProt O14229 111-456).
T5 sequence: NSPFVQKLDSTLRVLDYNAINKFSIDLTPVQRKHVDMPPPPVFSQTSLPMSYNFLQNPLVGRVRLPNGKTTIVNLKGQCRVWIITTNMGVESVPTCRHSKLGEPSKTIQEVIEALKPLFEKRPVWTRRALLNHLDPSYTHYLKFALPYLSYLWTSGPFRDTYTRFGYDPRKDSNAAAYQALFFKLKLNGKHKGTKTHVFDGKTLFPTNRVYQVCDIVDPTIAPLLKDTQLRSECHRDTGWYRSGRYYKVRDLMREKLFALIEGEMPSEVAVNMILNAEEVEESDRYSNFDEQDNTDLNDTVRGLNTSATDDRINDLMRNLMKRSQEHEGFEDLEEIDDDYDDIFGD
Described as above. The following applies: protein: recombinant; tags: N-terminal His-tag, TEV-cleaved; label: 32P; blunt.

Data set [5] deals with T6, Sfc1 full length;Sfc7 full length (Schizosaccharomyces …, UniProt O14229;A6X980 1-456;1-120, |).
T6 sequence 1: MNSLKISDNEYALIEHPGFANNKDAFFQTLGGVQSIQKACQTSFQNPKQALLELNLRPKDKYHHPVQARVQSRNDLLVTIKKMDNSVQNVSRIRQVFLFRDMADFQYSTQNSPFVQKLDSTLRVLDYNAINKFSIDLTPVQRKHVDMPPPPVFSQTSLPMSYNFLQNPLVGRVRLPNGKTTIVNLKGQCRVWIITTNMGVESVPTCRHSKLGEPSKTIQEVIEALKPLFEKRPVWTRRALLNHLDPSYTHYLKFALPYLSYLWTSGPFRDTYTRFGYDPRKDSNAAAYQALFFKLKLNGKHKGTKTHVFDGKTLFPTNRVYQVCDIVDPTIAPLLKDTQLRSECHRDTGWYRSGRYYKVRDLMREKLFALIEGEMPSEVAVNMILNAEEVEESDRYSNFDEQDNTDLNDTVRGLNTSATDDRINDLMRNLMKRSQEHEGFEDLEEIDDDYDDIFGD
T6 sequence 2: T4 sequence 2
The description is as above. The note with it: protein: recombinant;recombinant; tags: N-terminal His-tag, TEV-cleaved;; copies: 1;1; label: 32P; blunt.

Another data set deals with T7, Sfc1-DBD R269A (Schizosaccharomyces pombe, UniProt O14229 186-396, R269A).
T7 sequence: T2 sequence (looked up) with R84A
The description is as above. The following applies: protein: recombinant; tags: N-terminal His-tag, TEV-cleaved; label: 32P; blunt.

The target in another data set is T8, Sfc1-DBD R269A/K294A (Schizosaccharomyces pombe, UniProt O14229 186-396, R269A;K294A).
T8 sequence: T2 sequence (looked up) with R84A, K109A
Described as above. The note with it: protein: recombinant; tags: N-terminal His-tag, TEV-cleaved; label: 32P; blunt.

Another data set has as its target T9, Sfc1-DBD R237A (Schizosaccharomyces pombe, UniProt O14229 186-396, R237A).
T9 sequence: T2 sequence (looked up) with R52A
The data set is described as above. The note with it: protein: recombinant; tags: N-terminal His-tag, TEV-cleaved; label: 32P; blunt.

The target of a further data set is T10, Sfc1-DBD K294A (Schizosaccharomyces pombe, UniProt O14229 186-396, K294A).
T10 sequence: T2 sequence (looked up) with K109A
The description is as above. The following applies: protein: recombinant; tags: N-terminal His-tag, TEV-cleaved; label: 32P; blunt.

Data set [6] concerns the target T11, Sfc7 (S. pombe TFIIIC τA subunit), full length (Schizosaccharomyces pombe, UniProt A6X980 1-120).
T11 construct: Sfc7, Schizosaccharomyces pombe, full length (Mr = 13.3 kDa); cloned into pCDF-MCN; PDB 4BJJ holds residues 1-101; also called orthologue of S. cerevisiae τ55 (Tfc7) and human TFIIIC35; source: E. coli BL21 (DE3) RIPL, co-expressed with Sfc1, purified (Ni-NTA, TEV, second Ni-NTA, Mono Q, Superdex S200)
T11 sequence (looked up): T4 sequence 2
Kind of data set: ion-exchange chromatography; fragments from limited proteolysis of the purified Sfc1/Sfc7 heterodimer, separated by ion-exchange chromatography. The note with it: both partners purified.

The target in another data set is T12, Sfc1-DBD (Schizosaccharomyces pombe, UniProt O14229 186-396).
T12 sequence: T2 sequence (looked up)
Put plainly: unspecified (data not shown); similar affinity to A-box; Buffer D: 20 mM Tris-HCl pH 7.5, 200 mM KCl, 2 mM MgCl2, 10 mM DTT, 25 C (EMSA and nitrocellulose filter binding). The note with it: protein: recombinant; tags: N-terminal His-tag, TEV-cleaved; label: 32P; blunt.

Consider A-box non-coding ssDNA (nc-ss), for which, in [1], the binding signal (fold lower affinity than Sfc1-DBD) was 10.

B1: Sfc1_(435-456) synthetic peptide (22mer acidic Sfc1 tail peptide) (peptide)
peptide: QEHEGFEDLEEIDDDYDDIFGD
notes: Sfc1, Schizosaccharomyces pombe, the 22 C-terminal residues (435-456), pI 3.5; The methods call it Sfc1_(434-456); also called Sfc1_(434-456) peptide (methods); acidic tail peptide; source: synthetic peptide
Turning to B1, the Kd (in general, the concentration at which binding is half-saturated) in [2] was determined as 3000 ± 800 nM.

B2: A-box dsDNA (25 bp) (dsDNA)
DNA 1: CGAAGTGGCCGAGTGGTCTATGGCG
DNA 2: CGCCATAGACCACTCGGCCACTTCG
With B2, the binding signal is ~10 fold lower affinity than Sfc1-DBD in data set [3]; > 2 fold lower affinity than Sfc1-DBD with Sfc1-DBD R269A; > 2 fold lower affinity than Sfc1-DBD with Sfc1-DBD R269A/K294A; > 2 fold lower affinity than Sfc1-DBD with Sfc1-DBD R237A; > 2 fold lower affinity than Sfc1-DBD with Sfc1-DBD K294A. In addition, the binding result with Sfc1 186-456 is listed as “no binding”; in data set [4] it was “binds”; in the data set with Sfc1 111-456 it was “no binding”; in [5] it was “no binding”.

B3: Sfc1-NT, smaller protease-resistant Sfc1 fragment (residues 1-107) (domain or fragment, Schizosaccharomyces pombe, UniProt O14229 1-107, looked up)
chain: MNSLKISDNEYALIEHPGFANNKDAFFQTLGGVQSIQKACQTSFQNPKQALLELNLRPKDKYHHPVQARVQSRNDLLVTIKKMDNSVQNVSRIRQVFLFRDMADFQY
notes: Sfc1, Schizosaccharomyces pombe, residues 1-107, assigned by electrospray mass spectrometry and peptide mass fingerprinting; also called smaller Sfc1 fragment; source: limited proteolysis of the purified Sfc1/Sfc7 heterodimer made in E. coli; not shown: His-tag, N-terminal, cleaved
With B3, the binding result in data set [6] was “binds”.

B4: B-box dsDNA (25 bp) (dsDNA)
DNA 1: CGACCCGGGTTCGATTCCCGGCCAA
DNA 2: TTGGCCGGGAATCGAACCCGGGTCG
As to B4, the binding result in the data set with Sfc1-DBD is given as “binds”.
